Results reported in article PMC3292258 (Nature, 2012).

Molecular target: T1, MBP-YDA (Arabidopsis, UniProt Q9CAD5 1-883)
T1 sequence (looked up): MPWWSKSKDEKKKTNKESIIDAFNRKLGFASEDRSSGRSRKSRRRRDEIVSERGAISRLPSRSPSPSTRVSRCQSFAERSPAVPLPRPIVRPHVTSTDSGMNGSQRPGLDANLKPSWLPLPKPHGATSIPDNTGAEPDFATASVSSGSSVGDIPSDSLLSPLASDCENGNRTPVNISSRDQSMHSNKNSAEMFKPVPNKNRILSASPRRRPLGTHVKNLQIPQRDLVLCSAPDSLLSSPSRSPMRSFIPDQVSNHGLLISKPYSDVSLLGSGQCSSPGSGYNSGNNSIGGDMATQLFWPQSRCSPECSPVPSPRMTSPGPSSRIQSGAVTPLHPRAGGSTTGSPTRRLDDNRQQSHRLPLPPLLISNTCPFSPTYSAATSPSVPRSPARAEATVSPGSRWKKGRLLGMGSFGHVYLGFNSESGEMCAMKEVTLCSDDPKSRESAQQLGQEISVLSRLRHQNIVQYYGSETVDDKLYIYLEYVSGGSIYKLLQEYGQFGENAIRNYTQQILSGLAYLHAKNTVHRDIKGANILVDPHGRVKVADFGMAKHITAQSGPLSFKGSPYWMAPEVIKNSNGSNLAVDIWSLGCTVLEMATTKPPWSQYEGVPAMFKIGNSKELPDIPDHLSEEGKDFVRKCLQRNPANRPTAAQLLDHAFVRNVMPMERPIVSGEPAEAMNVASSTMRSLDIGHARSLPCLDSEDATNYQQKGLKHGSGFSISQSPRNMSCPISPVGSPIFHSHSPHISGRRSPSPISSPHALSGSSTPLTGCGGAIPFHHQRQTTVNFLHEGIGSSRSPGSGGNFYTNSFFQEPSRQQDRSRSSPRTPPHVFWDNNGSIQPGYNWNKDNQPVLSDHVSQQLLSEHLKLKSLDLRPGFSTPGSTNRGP
Assay: far-Western, overlay or dot blot

- binding result: binds
B1: GST-BIN2 (enzyme, Arabidopsis, UniProt Q39011 1-380, looked up)
chain: MADDKEMPAAVVDGHDQVTGHIISTTIGGKNGEPKQTISYMAERVVGTGSFGIVFQAKCLETGETVAIKKVLQDRRYKNRELQLMRVMDHPNVVCLKHCFFSTTSKDELFLNLVMEYVPESLYRVLKHYSSANQRMPLVYVKLYMYQIFRGLAYIHNVAGVCHRDLKPQNLLVDPLTHQVKICDFGSAKQLVKGEANISYICSRFYRAPELIFGATEYTTSIDIWSAGCVLAELLLGQPLFPGENAVDQLVEIIKVLGTPTREEIRCMNPHYTDFRFPQIKAHPWHKIFHKRMPPEAIDFASRLLQYSPSLRCTALEACAHPFFDELREPNARLPNGRPFPPLFNFKQEVAGSSPELVNKLIPDHIKRQLGLSFLNQSGT
